Where a chain is given by its changes, count along the chain named.
Tests used:
Details in all cases: protein: recombinant; tags: His (pET32a); blunt
[1] = target: T1, MdMYB10-HIS (also printed MdMYB1-HIS) (Malus domestica? (apple), UniProt E2RZU2 1-243); test: EMSA; not stated (EMSA as described by Xie et al. [40])
T1 sequence: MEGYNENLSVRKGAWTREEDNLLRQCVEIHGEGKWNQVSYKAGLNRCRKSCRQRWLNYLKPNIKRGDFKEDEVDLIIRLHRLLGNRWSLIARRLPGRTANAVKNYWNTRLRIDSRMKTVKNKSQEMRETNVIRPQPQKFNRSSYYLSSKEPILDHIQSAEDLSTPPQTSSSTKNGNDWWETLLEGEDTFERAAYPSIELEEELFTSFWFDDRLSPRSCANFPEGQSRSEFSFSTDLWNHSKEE

[2] = target: T1, MdMYB10-HIS (also printed MdMYB1-HIS); test: competition; unlabeled MBS-1m against labeled MBS-1; no competition; not stated (EMSA as described by Xie et al. [40])
[3] = target: T1, MdMYB10-HIS (also printed MdMYB1-HIS); test: EMSA; shift seen; authors judge it non-specific; not stated (EMSA as described by Xie et al. [40])

B1: MdNRT2.4-1(MBS-1) (dsDNA)
DNA 1: TTATAGAGGGTTTTGAGTTGACCGTGTGAAGGGTTGTGAAGAGGC
DNA 2: GCCTCTTCACAACCCTTCACACGGTCAACTCAAAACCCTCTATAA
binding result [1]: binds

B2: MdNRT2.4-1(MBS-1m) (dsDNA)
DNA 1: B1 DNA 1 with C22T, C23T
DNA 2: B1 DNA 2 with G23A, G24A
binding result [2]: no binding

B3: MdNIA2-1(MRE) (dsDNA)
DNA 1: AAGATTTCAGTTTAACAATTAGGTTGATTAGGAACCGGAACCAAA
DNA 2: TTTGGTTCCGGTTCCTAATCAACCTAATTGTTAAACTGAAATCTT
binding result [3]: binds

From paper PMC9016894, “MdMYB10 affects nitrogen uptake and reallocation by regulating the nitrate transporter MdNRT2.4-1 in red-fleshed apple”
